35 variants from the Human Domainome abundance scans (Beltran et al. 2025) can be followed below.

First the molecules themselves.
B1: Retinoic acid receptor RXR-alpha, residues 132 to 208; numbered along this chain, P19793 (parent)
chain: KHICAICGDRSSGKHYGVYSCEGCKGFFKRTVRKDLTYTCRDNKDCLIDKRQRNRCQYCRYQKCLAMGMKREAVQEE

± gives the uncertainty stated by the source.

Variants of B1 are the subject of this series. Description: abundance fitness (aPCA) (normalised: wild type 0, dead -1); higher = more abundant; growth selection in yeast, the domain comes from the species named. To be noted: Homo sapiens.
Regarding KHICAICGDRSSGKHYGVYSCEGCKGFFKRTVRKDLTYTCRDNKDCLIDKHQRNRCQYCRYQKCLAMGMKREAVQEE [R51H], the abundance fitness was -0.052 ± 0.08.

In the case of KHICAICGDRSSGKHYGVYSCEGCKGFFKRTVRKDLTYTCRDNKDCLIDKQQRNRCQYCRYQKCLAMGMKREAVQEE [R51Q], the abundance fitness is -0.015 ± 0.05. The figure for KHICAICGDRSSGKHYGVYSCEGCKGFFKRTVRKDLTYTCRDNKDCLIDKNQRNRCQYCRYQKCLAMGMKREAVQEE [R51N] is -0.071 ± 0.091; for KHICAICGDRSSGKHYGVYSCEGCKGFFKRTVRKDLTYTCRDNKDCLIDKPQRNRCQYCRYQKCLAMGMKREAVQEE [R51P] it is 0.045 ± 0.06. The value for KHICAICGDRSSGKHYGVYSCEGCKGFFKRTVRKDLTYTCRDNKDCLIDKMQRNRCQYCRYQKCLAMGMKREAVQEE [R51M] was -0.025 ± 0.051; that for KHICAICGDRSSGKHYGVYSCEGCKGFFKRTVRKDLTYTCRDNKDCLIDKLQRNRCQYCRYQKCLAMGMKREAVQEE [R51L] was 0.022 ± 0.038. The figure for KHICAICGDRSSGKHYGVYSCEGCKGFFKRTVRKDLTYTCRDNKDCLIDKGQRNRCQYCRYQKCLAMGMKREAVQEE [R51G] is 0.015 ± 0.028; for KHICAICGDRSSGKHYGVYSCEGCKGFFKRTVRKDLTYTCRDNKDCLIDKCQRNRCQYCRYQKCLAMGMKREAVQEE [R51C] it is -0.053 ± 0.052; for KHICAICGDRSSGKHYGVYSCEGCKGFFKRTVRKDLTYTCRDNKDCLIDKDQRNRCQYCRYQKCLAMGMKREAVQEE [R51D] it is -0.073 ± 0.081.

Take KHICAICGDRSSGKHYGVYSCEGCKGFFKRTVRKDLTYTCRDNKDCLIDKKQRNRCQYCRYQKCLAMGMKREAVQEE [R51K]: the abundance fitness was 0.082 ± 0.08. The value for KHICAICGDRSSGKHYGVYSCEGCKGFFKRTVRKDLTYTCRDNKDCLIDKSQRNRCQYCRYQKCLAMGMKREAVQEE [R51S] was 0.017 ± 0.049.

As for KHICAICGDRSSGKHYGVYSCEGCKGFFKRTVRKDLTYTCRDNKDCLIDKAQRNRCQYCRYQKCLAMGMKREAVQEE [R51A], the abundance fitness amounted to 0.007 ± 0.039. Consider KHICAICGDRSSGKHYGVYSCEGCKGFFKRTVRKDLTYTCRDNKDCLIDKTQRNRCQYCRYQKCLAMGMKREAVQEE [R51T], for which the abundance fitness was determined as 0.022 ± 0.058.

With KHICAICGDRSSGKHYGVYSCEGCKGFFKRTVRKDLTYTCRDNKDCLIDKEQRNRCQYCRYQKCLAMGMKREAVQEE [R51E], the abundance fitness was -0.005 ± 0.046. The figure for KHICAICGDRSSGKHYGVYSCEGCKGFFKRTVRKDLTYTCRDNKDCLIDKVQRNRCQYCRYQKCLAMGMKREAVQEE [R51V] is -0.035 ± 0.033; for KHICAICGDRSSGKHYGVYSCEGCKGFFKRTVRKDLTYTCRDNKDCLIDKWQRNRCQYCRYQKCLAMGMKREAVQEE [R51W] it is -0.038 ± 0.04; for KHICAICGDRSSGKHYGVYSCEGCKGFFKRTVRKDLTYTCRDNKDCLIDKIQRNRCQYCRYQKCLAMGMKREAVQEE [R51I] it is -0.001 ± 0.062. In the case of KHICAICGDRSSGKHYGVYSCEGCKGFFKRTVRKDLTYTCRDNKDCLIDKRQCNRCQYCRYQKCLAMGMKREAVQEE [R53C], the abundance fitness is -0.063 ± 0.04.

Consider KHICAICGDRSSGKHYGVYSCEGCKGFFKRTVRKDLTYTCRDNKDCLIDKRQSNRCQYCRYQKCLAMGMKREAVQEE [R53S], for which the abundance fitness was -0.076 ± 0.029. The figure for KHICAICGDRSSGKHYGVYSCEGCKGFFKRTVRKDLTYTCRDNKDCLIDKRQLNRCQYCRYQKCLAMGMKREAVQEE [R53L] is -0.041 ± 0.029. As to KHICAICGDRSSGKHYGVYSCEGCKGFFKRTVRKDLTYTCRDNKDCLIDKRQENRCQYCRYQKCLAMGMKREAVQEE [R53E], the abundance fitness was found to be 0.061 ± 0.047. The value for KHICAICGDRSSGKHYGVYSCEGCKGFFKRTVRKDLTYTCRDNKDCLIDKRQWNRCQYCRYQKCLAMGMKREAVQEE [R53W] was 0.006 ± 0.044; that for KHICAICGDRSSGKHYGVYSCEGCKGFFKRTVRKDLTYTCRDNKDCLIDKRQPNRCQYCRYQKCLAMGMKREAVQEE [R53P] was 0.027 ± 0.037; that for KHICAICGDRSSGKHYGVYSCEGCKGFFKRTVRKDLTYTCRDNKDCLIDKRQINRCQYCRYQKCLAMGMKREAVQEE [R53I] was 0.014 ± 0.035.

Regarding KHICAICGDRSSGKHYGVYSCEGCKGFFKRTVRKDLTYTCRDNKDCLIDKRQQNRCQYCRYQKCLAMGMKREAVQEE [R53Q], the abundance fitness is -0.028 ± 0.043. The value for KHICAICGDRSSGKHYGVYSCEGCKGFFKRTVRKDLTYTCRDNKDCLIDKRQYNRCQYCRYQKCLAMGMKREAVQEE [R53Y] was 0.007 ± 0.036; that for KHICAICGDRSSGKHYGVYSCEGCKGFFKRTVRKDLTYTCRDNKDCLIDKRQDNRCQYCRYQKCLAMGMKREAVQEE [R53D] was 0.002 ± 0.041. Take KHICAICGDRSSGKHYGVYSCEGCKGFFKRTVRKDLTYTCRDNKDCLIDKRQMNRCQYCRYQKCLAMGMKREAVQEE [R53M]: the abundance fitness is -0.065 ± 0.044.

For KHICAICGDRSSGKHYGVYSCEGCKGFFKRTVRKDLTYTCRDNKDCLIDKRQTNRCQYCRYQKCLAMGMKREAVQEE [R53T], the abundance fitness was determined as 0.063 ± 0.031.

Regarding KHICAICGDRSSGKHYGVYSCEGCKGFFKRTVRKDLTYTCRDNKDCLIDKRQHNRCQYCRYQKCLAMGMKREAVQEE [R53H], the abundance fitness turned out to be 0.015 ± 0.036. The figure for KHICAICGDRSSGKHYGVYSCEGCKGFFKRTVRKDLTYTCRDNKDCLIDKRQGNRCQYCRYQKCLAMGMKREAVQEE [R53G] is -0.009 ± 0.032. The figure for KHICAICGDRSSGKHYGVYSCEGCKGFFKRTVRKDLTYTCRDNKDCLIDKRQNNRCQYCRYQKCLAMGMKREAVQEE [R53N] is 0.03 ± 0.033. The figure for KHICAICGDRSSGKHYGVYSCEGCKGFFKRTVRKDLTYTCRDNKDCLIDKRQANRCQYCRYQKCLAMGMKREAVQEE [R53A] is -0.008 ± 0.033; for KHICAICGDRSSGKHYGVYSCEGCKGFFKRTVRKDLTYTCRDNKDCLIDKRQFNRCQYCRYQKCLAMGMKREAVQEE [R53F] it is -0.044 ± 0.034; for KHICAICGDRSSGKHYGVYSCEGCKGFFKRTVRKDLTYTCRDNKDCLIDKRQRNRCQPCRYQKCLAMGMKREAVQEE [Y58P] it is -0.294 ± 0.065.
